Results on 8 substances are retold here after article PMC3240630.

Test [1] concerns the target monoubiquitin (UniProt P0CG48). As to conditions: cited from earlier work.
The target of test [2] is monoubiquitin (UniProt P0CG48). As to conditions: cited from earlier work. The source holds these as a separate data set.
Test [3] has as its target monoubiquitin (UniProt P0CG48). The settings on record: cited from earlier work. This is another data set of the same source.
Test [4] deals with monoubiquitin (UniProt P0CG48). As to conditions: cited from earlier work. This is another data set of the same source.
Test [5] addresses monoubiquitin (UniProt P0CG48). As to conditions: cited from earlier work. This is another data set of the same source.
The target of test [6] is XIAP-UBA-RING double-domain construct (human). In words: SEC; analytical size-exclusion chromatography of 15N-XIAP-UBA-RING at 0.18 mM (methods in Methods S1). Background: Size exclusion chromatography separates by hydrodynamic size, large species first.
Test [7] concerns the target monoubiquitin (UniProt P0CG48). As to conditions: cited from earlier work. This is another data set of the same source.
Test [8] concerns the target monoubiquitin (UniProt P0CG48). The settings on record: cited from earlier work. This is another data set of the same source.

As a reminder, the Kd is the equilibrium constant for the complex coming apart. For orientation: stoichiometry N means a count of units in the complex or per binding partner.

Read-outs that look alike come from different tables or passages of the source.

Chain of Swa2 UBA (Q06677 137-183): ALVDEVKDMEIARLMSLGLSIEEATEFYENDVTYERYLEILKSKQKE
Chain of Mud1 UBA (Q10256 291-332): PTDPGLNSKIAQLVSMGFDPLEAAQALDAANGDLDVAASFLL
Chain of cIAP-1 (Q13490 whole entry): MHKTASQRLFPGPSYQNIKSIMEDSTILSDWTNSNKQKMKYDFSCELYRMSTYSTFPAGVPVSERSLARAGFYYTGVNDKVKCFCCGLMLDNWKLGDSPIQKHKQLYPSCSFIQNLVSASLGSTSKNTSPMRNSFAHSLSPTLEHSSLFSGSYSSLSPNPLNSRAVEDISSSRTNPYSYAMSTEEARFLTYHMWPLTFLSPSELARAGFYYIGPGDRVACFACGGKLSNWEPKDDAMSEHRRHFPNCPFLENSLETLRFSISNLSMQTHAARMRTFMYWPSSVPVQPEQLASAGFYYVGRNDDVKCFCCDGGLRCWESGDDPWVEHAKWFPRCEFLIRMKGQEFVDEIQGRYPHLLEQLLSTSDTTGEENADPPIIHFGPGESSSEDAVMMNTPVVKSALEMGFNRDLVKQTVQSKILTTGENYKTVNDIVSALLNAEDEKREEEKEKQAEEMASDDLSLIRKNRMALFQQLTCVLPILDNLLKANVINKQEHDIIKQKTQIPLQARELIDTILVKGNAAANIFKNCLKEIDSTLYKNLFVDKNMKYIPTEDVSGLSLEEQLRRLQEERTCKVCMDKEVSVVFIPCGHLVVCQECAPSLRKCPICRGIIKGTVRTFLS
Chain of Dsk2 UBA (P48510 324-373): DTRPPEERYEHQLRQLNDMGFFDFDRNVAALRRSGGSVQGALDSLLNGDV
Chain of Ede1 UBA (P34216 1335-1381): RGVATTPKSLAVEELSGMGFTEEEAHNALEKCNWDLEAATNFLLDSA
Chain of hHR23A UBA2 (P54725 315-361): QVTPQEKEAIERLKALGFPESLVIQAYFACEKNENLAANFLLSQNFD
Chain of Cbl-b UBA (Q13191 928-973): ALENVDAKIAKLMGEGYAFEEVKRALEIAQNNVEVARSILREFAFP

As to Cbl-b UBA (from UniProt Q13191), the Kd in the test with monoubiquitin [1] is 53.1 µM.

Take Dsk2 UBA (from UniProt P48510): in the test with monoubiquitin [2], the Kd is 14.8 µM.

Consider Ede1 UBA (from UniProt P34216), for which the dissociation constant (Kd) in the test with monoubiquitin [3] is 83 µM.

In the case of Mud1 UBA (from UniProt Q10256), the Kd with monoubiquitin [4] was 350 µM.

In the case of Swa2 UBA (from UniProt Q06677), the Kd with monoubiquitin [5] was 535 µM.

Take “XIAP-UBA-RING double-domain construct (domain or fragment)”: in test [6], the stoichiometry N was found to be 2.

Consider cIAP-1 (from UniProt Q13490), for which the equilibrium dissociation constant (Kd) in the test with monoubiquitin [7] is 56 µM.

In the case of hHR23A UBA2 (from UniProt P54725), the dissociation constant Kd with monoubiquitin [8] was 400 µM.
